Experimental data from article doi:10.1101/2025.10.29.685445 (2025).

T1: HCoV-HKU1 RBD (residues 310-606 of isolate N5), Fc- and His-tagged (HCoV-HKU1 (isolate N5), UniProt Q0ZME7 310-606)
T1 chain: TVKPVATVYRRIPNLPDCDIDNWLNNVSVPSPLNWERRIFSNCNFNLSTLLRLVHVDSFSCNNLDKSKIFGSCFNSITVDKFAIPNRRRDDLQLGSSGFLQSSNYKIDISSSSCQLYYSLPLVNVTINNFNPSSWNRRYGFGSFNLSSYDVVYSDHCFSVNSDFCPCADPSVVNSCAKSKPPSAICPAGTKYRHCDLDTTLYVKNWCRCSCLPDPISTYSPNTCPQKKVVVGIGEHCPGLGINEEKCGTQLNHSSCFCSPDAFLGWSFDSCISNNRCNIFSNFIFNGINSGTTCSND

B1: HCoV-HKU1 RBD (residues 310-606 of isolate N5), as used in BLI (domain or fragment)
chain: TVKPVATVYRRIPNLPDCDIDNWLNNVSVPSPLNWERRIFSNCNFNLSTLLRLVHVDSFSCNNLDKSKIFGSCFNSITVDKFAIPNRRRDDLQLGSSGFLQSSNYKIDISSSSCQLYYSLPLVNVTINNFNPSSWNRRYGFGSFNLSSYDVVYSDHCFSVNSDFCPCADPSVVNSCAKSKPPSAICPAGTKYRHCDLDTTLYVKNWCRCSCLPDPISTYSPNTCPQKKVVVGIGEHCPGLGINEEKCGTQLNHSSCFCSPDAFLGWSFDSCISNNRCNIFSNFIFNGINSGTTCSND
B2: H501-008 Fab (Fab, V domains shown)
VH: QVQLVQSGGGVVQPGRSLRLSCAVSGFTLDRYAMHWVRQAPGKALEWVALMSADGREQYYAESVKGRFTFSRDSSKNTLYLQMHNLRTDDSSVYFCAREGPMYYDAWSGRSYYNNYALDVWGRGTTVAVSS
VL: QSVLTQPPSVSAAPGQTVTISCSGSSSNIGDNYVSWYQQVPGTAPRLLVYDNNRRPLGIPDRFSGSKSGTSATLAIAGLQTGDEADYYCGTWDSSLSAGVFGGGTKLTVV

Tests used:
H501-009 = assay: BLI
H501-013 = assay: BLI
H501-020 = assay: BLI
H501-012 = assay: BLI
H501-015 = assay: BLI
H501-016 = assay: BLI
H501-003 = assay: BLI
[1] = target: HCoV-OC43 S1-CTD (residues 318-608), Fc- and His-tagged (HCoV-OC43); assay: SPR
[2] = target: T1, HCoV-HKU1 RBD (residues 310-606 of …); assay: SPR

| Binder | Kd (H501-009) [nM] | koff (H501-009) [s⁻¹] | Kd (H501-013) [nM] | koff (H501-013) [s⁻¹] | Kd (H501-020) [nM] | koff (H501-020) [s⁻¹] | Kd (H501-012) [nM] | koff (H501-012) [s⁻¹] | Kd (H501-015) [nM] | koff (H501-015) [s⁻¹] | Kd (H501-016) [nM] | koff (H501-016) [s⁻¹] | Kd (H501-003) [nM] | koff [1] [s⁻¹] | koff [2] [s⁻¹] |
| --- | --- | --- | --- | --- | --- | --- | --- | --- | --- | --- | --- | --- | --- | --- | --- |
| B1 | 5.44 | 0.000383 | 0.915 | 0.000209 | < 0.001 | < 1e-07 | 1.87 | 0.000326 | 0.568 | 0.000117 | 0.176 | 3.26e-05 | 0.508 |  |  |
| B2 |  |  |  |  |  |  |  |  |  |  |  |  |  | 0.042 | 0.000197 |
